Assay results from the supplement of paper PMC6755084.

B1: F1*; the commonest letter at each place (parent)
chain: GAGACCGCAACTGAAAAGTTGTTATCACTTGTCGTAAGACACTTTGGATGGGTTGAAGTTCTGCACGTAGAAGCAAAAGGC

Variants of: B1
Test: fraction ligated after 30 min (ligated reads / total reads); higher = more ligase activity
Details: with F1*sub RNA substrate (template-directed ligation), 42 °C
How it was run: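 Oligo-pool templates underwent PCR amplification, T7 transcription and gel purification to yield ribozyme variants. Gel-separated ligated and unligated bands were converted to complementary DNA with barcoded primers and sequenced on a MiSeq, keeping core bases of quality ≥20. The ratio of ligated reads to total reads gave the fraction ligated for every variant.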

Variant	fraction ligated
A41G G55T	0.754
A41G G55A	0.785
A41G G55C	0.663
A41C A56G	0.561
A41C A56T	0.615
A41C A56C	0.503
A41C A48C	0.571
A41C A48G	0.783
A41C A48T	0.736
A41T G47A	0.783
A41T G47T	0.418
A41T G47C	0.211
A39T A56G	0.78
A39T A56T	0.807
A39T A56C	0.761
C40T G47C	0.163
C40T G47A	0.798
C40T G47T	0.197
C40G T45C	0.669
C40G T45A	0.688
C40G T45G	0.0145
C40G A57T	0.79
C40G A57G	0.8
C40G A57C	0.788

Variant	fraction ligated
C42G A48G	0.821
C42G A48T	0.792
C42G A48C	0.765
A39T T43A	0.829
A39T T43G	0.772
A39T T43C	0.795
A41T T44G	0.8
A41T T44A	0.815
A41T T44C	0.806
C40T A48C	0.763
C40T A48G	0.784
C40T A48T	0.798
A41C G47C	0.177
A41C G47A	0.228
A41C G47T	0.157
C40G G46T	0.793
C40G G46C	0.801
C40G G46A	0.825
C40G C42T	0.8
C40G C42G	0.826
C40G C42A	0.82
A41G C42A	0.85
A41G C42G	0.803
A41G C42T	0.83

Variant	fraction ligated
A39T G55A	0.786
A39T G55T	0.804
A39T G55C	0.738
A41G A56C	0.755
A41G A56G	0.764
A41G A56T	0.756
C40A T44C	0.794
C40A T44G	0.779
C40A T44A	0.823
A41T G46T	0.787
A41T G46A	0.804
A41T G46C	0.792
A39T A48C	0.633
A39T A48G	0.778
A39T A48T	0.541
A41G G46A	0.791
A41G G46T	0.767
A41G G46C	0.768
A41G A57T	0.76
A41G A57C	0.735
A41G A57G	0.787
C40G T44A	0.841
C40G T44C	0.775
C40G T44G	0.807

Variant	fraction ligated
A39G T44A	0.816
A39G T44G	0.836
A39G T44C	0.849
C42A T49G	0.789
C42A T49A	0.797
C42A T49C	0.727
A41G G50C	0.119
A41G G50A	0.23
A41G G50T	0.609
C40G G55A	0.808
C40G G55C	0.659
C40G G55T	0.794
A39T G47C	0.229
A39T G47T	0.22
A39T G47A	0.759
A41C T44G	0.797
A41C T44A	0.764
A41C T44C	0.769
A41G T45A	0.482
A41G T45C	0.541
A41G T45G	0.119
A41C T43A	0.781
A41C T43C	0.766
A41C T43G	0.76

Variant	fraction ligated
A41C T49A	0.178
A41C T49G	0.209
A41C T49C	0.17
C42A	0.84
C42G	0.854
C40T C42G	0.857
C40T C42T	0.853
C40T C42A	0.845
C40A G50T	0.488
C40A G50C	0.123
C40A G50A	0.212
A39T G50C	0.0837
A39T G50T	0.413
A39T G50A	0.239
A39T A41C	0.782
A39T A41T	0.775
A39T A41G	0.769
C42A G47T	0.704
C42A G47C	0.695
C42A G47A	0.832
A41T T43G	0.803
A41T T43C	0.773
A41T T43A	0.822
C40T T44C	0.829

Variant	fraction ligated
C40T T44A	0.831
C40T T44G	0.825
A41G T49G	0.739
A41G T49A	0.671
A41G T49C	0.564
A41T A48T	0.345
A41T A48C	0.73
A41T A48G	0.762
C42A A48T	0.803
C42A A48G	0.785
C42A A48C	0.761
C40G A56G	0.766
C40G A56C	0.784
C40G A56T	0.805
A39T A57C	0.792
A39T A57G	0.869
A39T A57T	0.781
A41C G50C	0.168
A41C G50T	0.597
A41C G50A	0.28
A39G T45C	0.792
A39G T45G	0.389
A39G T45A	0.784
C42G G47T	0.68

Variant	fraction ligated
C42G G47C	0.64
C42G G47A	0.805
C42G A56T	0.797
C42G A56C	0.801
C42G A56G	0.792
C42A A56T	0.798
C42A A56C	0.794
C42A A56G	0.781
A41G G47C	0.178
A41G G47A	0.734
A41G G47T	0.354
C40G A48G	0.786
C40G A48C	0.768
C40G A48T	0.715
A41G T43G	0.807
A41G T43C	0.744
A41G T43A	0.817
A41T C42G	0.836
A41T C42A	0.849
A41T C42T	0.848
A41C C42A	0.844
A41C C42T	0.812
A41C C42G	0.826
